Measurements as given in the supplement of paper PMC12783771.
± gives the standard deviation of the averaged measurements.

B1: library; numbered along this chain (parent)
chain: MNIQIGELAKRTACPVVTIRFYEQEGLLPPPGRSRGNFRLYGEEHVERLQFIRHCRSLDMPLSDVRTLLSYRKRPDQDCGEVNMLLDEHIRQVESRIGALLELKHHLVELREACSGARPAQSCGILQGLSDCVCDTRGTTAHPSD

How the values were obtained:
[1] = variants of: B1; experiment: sfGFP reporter fluorescence (15 h) (µM FITC); higher = higher leak; details: library round: Round 0; ligand: none
Description: (§1)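 Cell-free (BL21 Star DE3 extract, PANOx-SP) biosensing: 1 µL Echo-assembled reactions with linear PbrR variant templates (5 nM) and pPbrR-sfGFP reporter, with 1 µM Pb (lead chloride), 30 µM Zn (zinc acetate) or no ligand; endpoint sfGFP fluorescence after 15 h at 30 °C, calibrated as µM FITC. Round 0 library (alanine scan, site saturation, combinatorial) of PbrR from Cupriavidus metallidurans; 2 biological replicates.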

[2] = variants of: B1; experiment: sfGFP reporter fluorescence (15 h) (µM FITC); higher = stronger transcriptional activation; details: library round: Round 0
Description: as §1

Variant | sfGFP reporter fluorescence [1] | sfGFP reporter fluorescence ([2]; ligand: 1 µM Pb) | sfGFP reporter fluorescence ([2]; ligand: 30 µM Zn)
C55G | 0.0568 ± 0.0015 | 0.057 ± 0.00078 | 0.07 ± 0.0015
C55F | 0.0634 ± 0.001 | 0.0674 ± 0.001 | 0.0876
G36F | 0.0594 ± 0.001 | 0.0638 ± 0.0015 | 0.145 ± 0.0029
G36W | 0.0579 ± 0.0057 | 0.0601 ± 0.0062 | 0.104 ± 0.0042
G36Q | 0.0592 ± 0.0029 | 0.0676 ± 0.0023 | 0.3562 ± 0.0026
G36N | 0.064 ± 0.0018 | 0.09 ± 0.006 | 1.41 ± 0.29
G36M | 0.0612 | 0.0667 ± 0.0031 | 0.236 ± 0.028
G36I | 0.05589 ± 0.00026 | 0.0579 ± 0.0015 | 0.117 ± 0.0044
G36A | 0.0665 ± 0.00078 | 0.108 ± 0.0067 | 1.91 ± 0.2
G36T | 0.06469 ± 0.00026 | 0.08943 ± 0.00052 | 0.866 ± 0.074
G36Y | 0.0605 ± 0.0026 | 0.0691 ± 0.0023 | 0.275 ± 0.031
G36S | 0.0706 ± 0.00078 | 0.119 ± 0.021 | 2.69 ± 0.06
G36R | 0.0597 ± 0.0015 | 0.0656 ± 0.0026 | 0.247 ± 0.0088
G36K | 0.06304 ± 0.00052 | 0.09218 ± 0.00026 | 1.18 ± 0.099
G36H | 0.0627 ± 0.0015 | 0.0793 ± 0.0018 | 0.772 ± 0.059
G36C | 0.0618 ± 0.0018 | 0.0865 ± 0.0015 | 0.8609 ± 0.0015
G36D | 0.0616 | 0.0623 ± 0.0021 | 0.0695 ± 0.0018
G36P | 0.05937 ± 0.00052 | 0.0583 ± 0.001 | 0.0627 ± 0.0036
G36V | 0.06011 ± 0.00052 | 0.0711 ± 0.00052 | 0.322 ± 0.011
G36E | 0.05992 ± 0.00026 | 0.0618 ± 0.0018 | 0.115 ± 0.0098
G36L | 0.0588 ± 0.00078 | 0.0621 ± 0.00078 | 0.114 ± 0.011
V46G | 0.05498 ± 0.00052 | 0.059 ± 0.0021 | 0.106 ± 0.013
V46E | 0.0579 | 0.0806 ± 0.0015 | 0.724 ± 0.053

Variant | sfGFP reporter fluorescence [1] | sfGFP reporter fluorescence ([2]; ligand: 1 µM Pb) | sfGFP reporter fluorescence ([2]; ligand: 30 µM Zn)
V46S | 0.055 ± 0.0021 | 0.0687 ± 0.00078 | 0.306 ± 0.059
V46R | 0.0594 ± 0.001 | 0.08704 ± 0.00026 | 0.75 ± 0.054
V46M | 0.0563 ± 0.0018 | 0.09 ± 0.0075 | 1 ± 0.1
V46D | 0.0581 ± 0.0034 | 0.0612 ± 0.0015 | 0.0735 ± 0.0013
V46C | 0.0531 ± 0.0026 | 0.0781 ± 0.0021 | 0.574 ± 0.01
V46A | 0.0619 ± 0.0031 | 0.0757 ± 0.0023 | 0.682 ± 0.097
V46W | 0.0583 ± 0.0021 | 0.0757 ± 0.0034 | 0.429 ± 0.0044
V46L | 0.0542 ± 0.0047 | 0.0847 ± 0.015 | 0.811 ± 0.057
V46P | 0.0537 ± 0.0023 | 0.0592 ± 0.0039 | 0.0641 ± 0.0042
V46Y | 0.0588 ± 0.00078 | 0.0861 ± 0.0067 | 0.6826 ± 0.0049
V46T | 0.057 ± 0.0013 | 0.07733 ± 0.00052 | 0.419 ± 0.0078
V46N | 0.0535 ± 0.0021 | 0.0665 ± 0.0096 | 0.108 ± 0.0023
V46H | 0.0557 ± 0.0015 | 0.0738 ± 0.00078 | 0.345 ± 0.039
V46K | 0.0599 ± 0.00078 | 0.0922 ± 0.0023 | 0.908 ± 0.097
V46F | 0.05626 ± 0.00026 | 0.0814 ± 0.0015 | 0.66 ± 0.074
V46Q | 0.0544 ± 0.0039 | 0.0858 ± 0.001 | 0.755 ± 0.052
V46I | 0.0548 ± 0.006 | 0.0711 ± 0.0062 | 0.831 ± 0.17
Q50A | 0.06615 ± 0.00026 | 0.0891 | 0.743 ± 0.019
G32A | 0.0614 ± 0.0013 | 0.0586 ± 0.0052 | 0.467 ± 0.086
L40A | 0.0608 ± 0.0031 | 0.0658 ± 0.0018 | 0.207 ± 0.0036
F51A | 0.06597 ± 0.00052 | 0.0621 ± 0.0023 | 0.16 ± 0.0083
R33S | 0.0623 ± 0.00052 | 0.0605 ± 0.0031 | 0.0656 ± 0.001
R33T | 0.0634 | 0.06267 ± 0.00052 | 0.06285 ± 0.00026

Variant | sfGFP reporter fluorescence [1] | sfGFP reporter fluorescence ([2]; ligand: 1 µM Pb) | sfGFP reporter fluorescence ([2]; ligand: 30 µM Zn)
R33L | 0.0605 ± 0.001 | 0.06175 ± 0.00026 | 0.108 ± 0.0042
R33E | 0.06157 ± 0.00052 | 0.06304 ± 0.00052 | 0.0715 ± 0.0031
R33A | 0.0614 ± 0.0023 | 0.0594 | 0.0625 ± 0.00078
R33F | 0.0599 ± 0.0018 | 0.061 ± 0.0029 | 0.0665 ± 0.0044
R33P | 0.0607 ± 0.0013 | 0.05956 ± 0.00026 | 0.064 ± 0.00078
R33H | 0.0623 ± 0.00052 | 0.0607 ± 0.0029 | 0.0707
R33G | 0.0577 ± 0.00078 | 0.0575 ± 0.0015 | 0.0599 ± 0.0018
R33Y | 0.0647 ± 0.0013 | 0.0618 ± 0.0013 | 0.0702 ± 0.0029
R33M | 0.0629 ± 0.0013 | 0.0625 ± 0.0013 | 0.0619 ± 0.0015
R33I | 0.05772 ± 0.00026 | 0.05662 ± 0.00026 | 0.06542 ± 0.00026
R33V | 0.0607 ± 0.00078 | 0.05937 ± 0.00052 | 0.0696 ± 0.0021
R33C | 0.0592 ± 0.00078 | 0.0607 ± 0.0023 | 0.0612 ± 0.0021
R33K | 0.064 ± 0.0013 | 0.0634 ± 0.0042 | 0.112 ± 0.0065
R33Q | 0.0623 ± 0.001 | 0.0612 ± 0.001 | 0.0711 ± 0.0026
R33N | 0.0632 ± 0.00078 | 0.0817 ± 0.028 | 0.06084 ± 0.00052
R33W | 0.0636 ± 0.00078 | 0.0629 ± 0.0039 | 0.0718 ± 0.0021
R33D | 0.0651 ± 0.00078 | 0.06377 ± 0.00052 | 0.0652
R39I | 0.0572 ± 0.0015 | 0.0566 ± 0.0018 | 0.0726 ± 0.0042
R39H | 0.0625 ± 0.0018 | 0.0652 ± 0.0031 | 0.0663 ± 0.0047
R39Q | 0.0612 ± 0.001 | 0.0599 ± 0.0018 | 0.0583 ± 0.001
R39M | 0.06139 ± 0.00026 | 0.0616 ± 0.0026 | 0.0583
R39G | 0.0555 ± 0.00078 | 0.0563 ± 0.0023 | 0.0563 ± 0.0018
R39N | 0.06102 ± 0.00026 | 0.0597 ± 0.0015 | 0.0605

Variant | sfGFP reporter fluorescence [1] | sfGFP reporter fluorescence ([2]; ligand: 1 µM Pb) | sfGFP reporter fluorescence ([2]; ligand: 30 µM Zn)
R39T | 0.0616 ± 0.001 | 0.0608 | 0.06029 ± 0.00026
R39A | 0.0651 ± 0.0018 | 0.0599 ± 0.0029 | 0.0678 ± 0.0021
R39V | 0.0588 ± 0.00078 | 0.05882 ± 0.00026 | 0.05736 ± 0.00026
R39S | 0.0607 ± 0.00078 | 0.0603 ± 0.0013 | 0.0592 ± 0.0023
R39Y | 0.05992 ± 0.00026 | 0.0605 ± 0.0036 | 0.0608 ± 0.0047
R39F | 0.0597 ± 0.001 | 0.0588 ± 0.0013 | 0.0555 ± 0.0018
R39W | 0.05956 ± 0.00026 | 0.0599 ± 0.00078 | 0.06011 ± 0.00052
R39E | 0.0614 ± 0.0013 | 0.0634 | 0.066 ± 0.0015
R39P | 0.0581 ± 0.00078 | 0.0597 ± 0.001 | 0.0581 ± 0.0029
R39D | 0.0603 ± 0.0018 | 0.0608 ± 0.0026 | 0.0597 ± 0.0036
R39C | 0.0599 ± 0.0013 | 0.061 ± 0.00078 | 0.057 ± 0.0029
R39L | 0.0581 ± 0.0013 | 0.05901 ± 0.00052 | 0.055 ± 0.0036
R39K | 0.0612 ± 0.0015 | 0.0623 ± 0.0036 | 0.14 ± 0.022
N37A | 0.0634 ± 0.001 | 0.0729 ± 0.0042 | 0.481 ± 0.007
S34A | 0.0645 ± 0.001 | 0.0654 ± 0.00078 | 0.328 ± 0.018
E44A | 0.0612 ± 0.0015 | 0.0746 ± 0.0013 | 0.495 ± 0.044
G42A | 0.06212 ± 0.00026 | 0.0737 ± 0.0021 | 0.482 ± 0.034
R35A | 0.0658 ± 0.0029 | 0.08833 ± 0.00052 | 2.06 ± 0.079
R53A | 0.0614 ± 0.0018 | 0.06652 ± 0.00026 | 0.487 ± 0.074
F38A | 0.064 ± 0.0039 | 0.0634 ± 0.0026 | 0.379 ± 0.015
